The numbers were not newly measured in publication PMC5914118, “Exploiting the Concept of Multivalency with ^68Ga- and ^89Zr-Labelled Fusarinine C-Minigastrin Bioconjugates for Targeting CCK2R Expression” (Contrast Media & Molecular Imaging, 2018), which cites them from elsewhere.

This data set deals with T1, human CCK2R (A431-CCK2R cells) (Homo sapiens, UniProt P32239).
T1 construct: expressed in transfected cells; host or cells: A431 human epidermoid carcinoma cells, stably transfected (plasmid pCR3.1); gift from Aloj
T1 sequence (P32239 1-447): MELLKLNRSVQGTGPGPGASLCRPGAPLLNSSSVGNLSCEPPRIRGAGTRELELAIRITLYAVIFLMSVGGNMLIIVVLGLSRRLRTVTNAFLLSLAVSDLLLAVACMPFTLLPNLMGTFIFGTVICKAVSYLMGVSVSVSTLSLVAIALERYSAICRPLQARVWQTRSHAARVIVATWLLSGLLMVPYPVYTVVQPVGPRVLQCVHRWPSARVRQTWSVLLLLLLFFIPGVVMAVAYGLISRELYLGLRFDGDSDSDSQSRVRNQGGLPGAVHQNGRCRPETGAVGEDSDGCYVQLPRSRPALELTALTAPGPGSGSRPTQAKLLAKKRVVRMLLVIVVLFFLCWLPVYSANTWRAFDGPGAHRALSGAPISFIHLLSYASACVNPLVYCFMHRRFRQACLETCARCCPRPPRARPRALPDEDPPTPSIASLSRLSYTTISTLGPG
The arrangement: method as in PMID 28462989. As to conditions: reference peptide, whole A431-CCK2R cells; cited from earlier work.

By IC50 is commonly meant the concentration at which inhibition is half-maximal. Consider “DOTA-MG11: reference peptide: DOTA-conjugated minigastrin analogue MG11 (EAYGWMDF; synthetic human minigastrin analogue)”, for which the IC50 was 9.5 ± 0.5 nM.
